Experimental data: the supplement of paper PMC9732359
± gives the uncertainty stated by the source.

Test: protein stability index of a GFP-peptide fusion (yeast GPS) (PSI 1-4); higher = more stable; sorted into four equal gates, so the index is relative within each strain
Details: pdr5∆
Summary of the method: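 The protein stability index combines read frequencies across sorting gates, each weighted by its gate number and then summed. To obtain those frequencies, a pooled yeast library of GFP fusions to tiled 17-residue yeast protein peptides, on a plasmid also expressing Cherry, was grown to mid-log phase in leucine-free medium. The cells were sorted into four equal gates by GFP/Cherry ratio before plasmid amplification by PCR and Illumina sequencing.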

Going from PQKSSSKGFVFNSVQKK [YAR002W/NUP60] to PQMQCALQNLSQLPITP [YGL172W/NUP49], the protein stability index rises from 1.4 ± 0.1 to 2.23 ± 0.098.

First: PQNEKPPAYALLGSCQT [RPC25]
Second: PQQQQQHLQFNGSSDAS [YDL088C/ASM4]
The protein stability index of the first is higher: 2.76 ± 0.17 for the first, 2.22 ± 0.048 for the second.

Same assay, conditions: san1∆

Compared with NYDCKVISIVGGHSLEE [PRP28], NYDTCGGESAYFFQLQI [RPC11] is lower in protein stability index: 2.88 ± 0.042 for the first, 2.04 ± 0.14 for the second.

Compared with NYFVDTDLKKIIKANQL [RET1], NYIPGNPLVTPASIVPE [COB] is lower in protein stability index: 3.01 ± 0.044 for the first, 2.42 ± 0.1 for the second.

Going from NYIYAGYENGMLAQWDL [RPN14] to NYKGLPKKYKENNTDSA [SMC1], the protein stability index rises from 3.06 ± 0.1 to 3.28 ± 0.045.

NYNDLIVNYEDLATTQA [BRN1] and PAGQATQKRTHVLKKNP [RPL4A] are within error of each other in protein stability index: 3.34 ± 0.047 for the first, 3.28 ± 0.22 for the second.

Compared with PAITIEKLKQFSWISVV [SIR3], PAKVEDVQKSSDSSSED [YLR335W/NUP2] is higher in protein stability index: 1.24 ± 0.094 for the first, 2.4 ± 0.11 for the second.

PALIRPGRIDRKILFEN [RPT2] and PAVKQWDLLPEPIRFLP [SWI1] are within error of each other in protein stability index: 2.12 ± 0.2 for the first, 2.33 ± 0.055 for the second.

Compared with PDAKIQVRRDIPSAAFN [YMR129W/POM152], PEESKGSFKYITARSAF [SWP82] is higher in protein stability index: 1.63 ± 0.11 for the first, 3.1 ± 0.053 for the second.

First: PEESKPINLQNGEEDEV [YLR335W/NUP2]
Second: PEGTLSGGSRNTSESLL [SMC2]
The protein stability index of the first is lower: 3.1 ± 0.046 for the first, 3.44 ± 0.13 for the second.

First: PEIPLVVSTDLESIQKT [RPL4A]
Second: PEKKEMIQEVIVEEDLE [FAS2]
The protein stability index of the first is lower: 3.16 ± 0.052 for the first, 3.35 ± 0.045 for the second.

First: PEKTSTELVDGRENFVY [SIR3]
Second: PENTAMFNPLHESYCLP [YMR129W/POM152]
The protein stability index of the first is higher: 3.1 ± 0.12 for the first, 2.66 ± 0.037 for the second.

First: PESQGQHEQQKQQEQLE [YMR153W/NUP53]
Second: PEYEKAMQYVCGDSIIC [SMC1]
The protein stability index of the first is higher: 3.24 ± 0.06 for the first, 1.88 ± 0.14 for the second.

Going from PFDNSTEEKCKNFIESE [YJL039C/NUP192] to PFETFDHASIRRGYQVY [CYT1], the protein stability index falls from 3.22 ± 0.096 to 2.82 ± 0.047.

First: PFIKSESKPFSSDALSK [SIR4]
Second: PFQLDVADMLTPEYAAE [UBP6]
The protein stability index of the first is higher: 3.2 ± 0.046 for the first, 2.7 ± 0.085 for the second.

PFREFLQVLIDQLDSEA [ECM29] and PGFQLPNRITLTDHRKE [SRB8] are within error of each other in protein stability index: 3.08 ± 0.089 for the first, 3.14 ± 0.069 for the second.

Compared with PGKGILTTAREHHSSVK [FAS2], PHGFPSRMTVGKMIELI [RET1] is lower in protein stability index: 3.17 ± 0.049 for the first, 2.77 ± 0.084 for the second.

Compared with PHGISVFLSNLVETCLN [BRR2], PHLPFSKSENPVLSTIA [SWI3] is higher in protein stability index: 1.48 ± 0.07 for the first, 2.03 ± 0.062 for the second.

Going from PIAAPKKPRKPRQTKKA [PGD1] to PIAQPATDVEARAVQDN [RPL13A], the protein stability index rises from 2.56 ± 0.082 to 3.1 ± 0.14.

First: PILVTLVSDSEIIDLNL [POP6]
Second: PIMQTQMPLNSNGGNNM [SNF2]
The protein stability index of the first is lower: 2.36 ± 0.074 for the first, 2.84 ± 0.057 for the second.

PINLKFLQGESPFSITF [YMR129W/POM152] and PKELVPSHEKLKESYSQ [CDC53] are within error of each other in protein stability index: 2.63 ± 0.063 for the first, 2.51 ± 0.14 for the second.

Going from PKLLDALNKISKYYPGV [SNU114] to PKNLLKKFIEISDVKIQ [PRP8], the protein stability index falls from 2.8 ± 0.065 to 1.76 ± 0.13.

Going from PKNSSSPVQIAFNRFMA [SSN8] to PKSTAPIFSFGKQEENG [YOR098C/NUP1], the protein stability index rises from 1.52 ± 0.1 to 2.49 ± 0.059.

Compared with PLAKKQTVRLIKDLQRA [SIR2], PLGILHIPICVTFSFFN [RRP45] is lower in protein stability index: 2.77 ± 0.057 for the first, 1.2 ± 0.096 for the second.

Compared with PLLRKVVDRESDIPKTT [PRE4], PLRDNGLLDESPNRLRV [YML031W/NDC1] is higher in protein stability index: 1.87 ± 0.13 for the first, 3.15 ± 0.08 for the second.

Going from PLVGKPKTELTKGDSTP [YAR002W/NUP60] to PLVIRRYLPDGSFEDWS [RPO26], the protein stability index rises from 2.46 ± 0.086 to 3.44 ± 0.068.

PLVYRHELITNIGETAG [RPB9] and PMEVMGLMLGEFVDDYT [RPN11] are within error of each other in protein stability index: 3.04 ± 0.042 for the first, 3.12 ± 0.14 for the second.

First: PNERKAKQAKIRAGEFD [SNF2]
Second: PNETSEIAQANSRNAIR [RPL19A]
The protein stability index of the first is higher: 2.99 ± 0.17 for the first, 2.54 ± 0.14 for the second.

PNFDWDLCSSVLSQFER [ROX3] and PNFFLTLISENWWHSEF [BRR2] are within error of each other in protein stability index: 2.6 ± 0.08 for the first, 2.59 ± 0.092 for the second.

Compared with PNINTWQQVTALAQQKL [GAL11], PNLNMKYRKRQLVTREA [FAS2] is higher in protein stability index: 2.11 ± 0.085 for the first, 3 ± 0.095 for the second.

Compared with PNNASSHISASASPHLA [SNF2], PNNETSVLSSKPGSKPE [SIR3] is higher in protein stability index: 2.51 ± 0.069 for the first, 3.06 ± 0.082 for the second.

Going from PNRITLTDHRKETWLHE [SRB8] to PNVDLVTALEVLSLGRP [RGR1], the protein stability index falls from 3.17 ± 0.07 to 2.47 ± 0.1.

Going from PPEEFSNTIDELSTDII [SRB7] to PPPPPPSNFEINAEEIV [PRP8], the protein stability index falls from 3.26 ± 0.069 to 2.72 ± 0.039.

PPTDTNVEESVSKADIL [POP5] and PQAVTITSIMDDLALPY [ITC1] are within error of each other in protein stability index: 2.79 ± 0.069 for the first, 2.72 ± 0.059 for the second.

Compared with PQDYVLERVKRIMEKSV [YML031W/NDC1], PQKSSSKGFVFNSVQKK [YAR002W/NUP60] is lower in protein stability index: 2.55 ± 0.087 for the first, 1.83 ± 0.14 for the second.

PQMQCALQNLSQLPITP [YGL172W/NUP49] and PQQQQQHLQFNGSSDAS [YDL088C/ASM4] are within error of each other in protein stability index: 2.12 ± 0.1 for the first, 2.04 ± 0.066 for the second.

Same assay, conditions: ubr1∆

NYDCKVISIVGGHSLEE [PRP28] gave a protein stability index of 2.83 ± 0.041.
